Assay results as given in patent US20170233451A1.

Target: human PD-L1 on cells (IFN-gamma-induced SK-MEL-28 melanoma cells; CT26-Tg(hPD-L1)-delta(mPD-L1) cells and tumors) (human) (UniProt Q9NZQ7)
Experiment: flow cytometry of a dissociated CT26 hPD-L1 positive tumor four hours after intraperitoneal injection of both labeled agents; same quadrant of the PD-L1 negative tumor: 3.97

Sequence of human PD-L1 on cells (IFN-gamma-induced SK-MEL-28 melanoma cells; CT26-Tg(hPD-L1)-delta(mPD-L1) cells and tumors) (human) (Q9NZQ7 19-290 limits assumed, stated change not applied): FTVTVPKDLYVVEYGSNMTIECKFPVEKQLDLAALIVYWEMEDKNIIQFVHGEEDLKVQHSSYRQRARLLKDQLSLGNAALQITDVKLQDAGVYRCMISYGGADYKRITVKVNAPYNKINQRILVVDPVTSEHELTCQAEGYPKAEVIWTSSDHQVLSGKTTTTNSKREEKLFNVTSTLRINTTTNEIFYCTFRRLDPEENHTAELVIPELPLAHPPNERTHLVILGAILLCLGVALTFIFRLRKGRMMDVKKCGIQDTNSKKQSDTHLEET

A % of cells in the quadrant Anti-hPD-L1 488 positive, HAC 594 negative (lower right) of 2.22% was found for “AlexaFluor488-labeled anti-PD-L1 antibody (clone 29E.2A3, BioLegend)” in this work.
